From patent CN101151278A
Where a chain is given by its changes, count along the chain named. Each block holds one binder with its values, some of them ahead of it.

Legend:
可溶性CD20 (Genentech) = target: T1, 可溶性CD20 (Genentech) (UniProt P11836); assay: ELISA, soluble CD20 coated on plate
T1 sequence (looked up): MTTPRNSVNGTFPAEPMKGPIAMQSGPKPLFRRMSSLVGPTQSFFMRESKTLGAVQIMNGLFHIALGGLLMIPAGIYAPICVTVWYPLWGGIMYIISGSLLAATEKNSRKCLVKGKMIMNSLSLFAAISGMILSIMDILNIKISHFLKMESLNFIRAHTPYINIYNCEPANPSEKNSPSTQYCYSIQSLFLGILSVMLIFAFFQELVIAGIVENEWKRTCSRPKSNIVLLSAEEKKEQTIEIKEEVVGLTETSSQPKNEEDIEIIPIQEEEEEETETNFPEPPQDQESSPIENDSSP

[1] = target: T2, CD20 on WIL2-S cells (human) (UniProt P11836); assay: cell ELISA, WIL2-S; ratio vs chimeric 2H7.v6.8
T2 sequence (looked up): T1 sequence (looked up)

B3: 2H7.v3 (antibody, IgG1, V domains shown)
VH: EVQLVESGGGLVQPGGSLRLSCAASGYTFTSYNMHWVRQAPGKGLEWVAAIYPGNGDTSYNQKFKGRFTISVDKSKNTLYLQMNSLRAEDTAVYYCARVVYYSNSYWYFDVWGQGTLVTVSS
VL: DIQMTQSPSSLSASVGDRVTITCRASSSVSYMHWYQQKPGKAPKLLIYAPSNLASGVPSRFSGSGSGTDFTLTISSLQPEDFATYYCQQWSFNPPTFGQGTKVEIKR
- 相对结合 [1]: 0.21

B4: 2H7.v4 (antibody, IgG1, V domains shown)
VH: B3 VH with K74N
VL: B3 VL
- 相对结合 [1]: 0.21

Second part, the binder after the results:

- fold increase in binding (vs 2H7.v16 and 2H7.v588) (可溶性CD20 (Genentech)): 90 fold
B1: hu2H7.v511 (antibody, human IgG1, kappa, V domains shown)
VH: B3 VH with A49G, D57A, N104Y, S105R
VL: B3 VL with M32L, L45P, S91A

- 相对结合 [1]: 0.01
B2: 人源化2H7型式2 (2H7.v2) (antibody, IgG1, V domains shown)
VH: B3 VH with V72R, K74N
VL: B3 VL
